Like-named read-outs stand apart in the source and are kept apart here.
B1: MAO-B (Bos taurus) (protein)
chain: MSSKCDVVVVGGGISGMAAAKLLHDSGLNVIVLEARDRVGGRTYTLRNQKVKYVDLGGSYVGPTQNHILRLSKELGLETYKVNEVERLIHHTKGKSYPFRGSFPSVWNPITYLDHNNLWRTMDDMGREIPSDAPWKAPLAEQWDLMTMKELLDKICWTESSKQLAILFVNLCVTAEIHEVSALWFLWYVKQCGGTTRIFSTSNGGQERKFVGGSGQVSERIMDLLGDRVKLERPVIHIDQTGENVLVETLNHELYEAKYVISAVPPVLGMKIHFNPPLPMMRNQLITRVPLGSVIKSIVYYKEPFWRNMDYCGSMIIEGEEAPVAYALDDTKPDGSYPAIIGFILAHKARKLARLTKEERLKKLCDLYAKVLGSQEALHPVHYEEKNWCEEQYSGGCYTSYFPPGIMTQYGRVLRQPVGRIYFAGTETATHWSGYMEGAVEAGERAAREILHAMGKIPEDEIWLPEPESVDVPAKPITTTFLQRHLPSVPGLLKLIGLTTIFSATALGFLAHKRGLLVRI
B2: MAO-A (Homo sapiens) (protein)
chain: MENQEKASIAGHMFDVVVIGGGISGLSAAKLLTEYGVSVLVLEARDRVGGRTYTIRNEHVDYVDVGGAYVGPTQNRILRLSKELGIETYKVNVSERLVQYVKGKTYPFRGAFPPVWNPIAYLDYNNLWRTIDNMGKEIPTDAPWEAQHADKWDKMTMKELIDKICWTKTARRFAYLFVNINVTSEPHEVSALWFLWYVKQCGGTTRIFSVTNGGQERKFVGGSGQVSERIMDLLGDQVKLNHPVTHVDQSSDNIIIETLNHEHYECKYVINAIPPTLTAKIHFRPELPAERNQLIQRLPMGAVIKCMMYYKEAFWKKKDYCGCMIIEDEDAPISITLDDTKPDGSLPAIMGFILARKADRLAKLHKEIRKKKICELYAKVLGSQEALHPVHYEEKNWCEEQYSGGCYTAYFPPGIMTQYGRVIRQPVGRIFFAGTETATKWSGYMEGAVEAGERAAREVLNGLGKVTEKDIWVQEPESKDVPAVEITHTFWERNLPSVSGLLKIIGFSTSVTALGFVLYKYKLLPRS

Substrate: NCCc1cc2oc(=O)ccc2cc1N
Assay: purified protein, by the assay type

Protein | Km | Km (pH 7.4)
B1 | 510 ± 40 µM | 13 µM
B2 | 30.9 ± 1.8 µM | 31 µM

Reference: patent publication US20080194522A1, “Development of Fluorogenic Substrates For Monoamine Oxidases (Mao-A and Mao-B)” (priority 2004, published 2008)
